In assay [1] the target is AAV2 capsid (AAV2-Luciferase vector) (adeno-associated virus 2) (UniProt P03135). The assay can be described thus: cell-based or functional assay.
Assay [2] deals with IgG affixed to the BLI probe. The assay can be described thus: BLI kinetic analysis, 1:1 fit, protein M 15.6-250 nM, IgG on Anti-Mouse IgG Fc Capture biosensor (mouse IgG per paragraph 316), 37 C; same row: KD error 0.2 nM, X2 2.5, R2 1.00.
Assay [3] concerns the target IgG affixed to the BLI probe. Briefly: BLI kinetic analysis, 1:1 fit, protein M 15.6-250 nM, IgG on Anti-Mouse IgG Fc Capture biosensor (mouse IgG per paragraph 316), 37 C. (In general: Biolayer interferometry detects binding as a change in optical thickness at a sensor tip.)
In assay [4] the target is AAV2 capsid (AAV2-Luciferase vector) (adeno-associated virus 2) (UniProt P03135). Briefly: cell-based or functional assay. This is another data set of the same source.
The target of assay [5] is human intravenous immunoglobulin gamma (IVIG), 10% Human IVIG (Gamunex) (human). Briefly: cell-based or functional assay.
The target in assay [6] is IgG affixed to the BLI probe. Briefly: BLI kinetic analysis, 1:1 fit, protein M 15.6-250 nM, IgG on Anti-Mouse IgG Fc Capture biosensor (mouse IgG per paragraph 316), 37 C; same row: KD error 0.2 nM, X2 1.9, R2 1.00.
For assay [7], the target named is IgG affixed to the BLI probe. The assay can be described thus: BLI at 37° C, IgG Fc capture biosensor (AHC or AMC, not told which), 1:1 fit, max conc. 250 nM, 5 dilutions.
The target of assay [8] is IgG affixed to the BLI probe. Briefly: BLI at 37° C, IgG Fc capture biosensor (AHC or AMC, not told which), 1:1 fit, max conc. 50 nM, 6 points.
Assay [9] has as its target IgG affixed to the BLI probe. The assay can be described thus: BLI kinetic analysis, 1:1 fit, protein M 15.6-250 nM, IgG on Anti-Mouse IgG Fc Capture biosensor (mouse IgG per paragraph 316), 37 C; same row: KD error 0.5 nM, X2 2.4, R2 0.99.

Bounds are passed on as bounds.

Chain of UniProt P03135 (P03135 whole entry, the tested form may be a part): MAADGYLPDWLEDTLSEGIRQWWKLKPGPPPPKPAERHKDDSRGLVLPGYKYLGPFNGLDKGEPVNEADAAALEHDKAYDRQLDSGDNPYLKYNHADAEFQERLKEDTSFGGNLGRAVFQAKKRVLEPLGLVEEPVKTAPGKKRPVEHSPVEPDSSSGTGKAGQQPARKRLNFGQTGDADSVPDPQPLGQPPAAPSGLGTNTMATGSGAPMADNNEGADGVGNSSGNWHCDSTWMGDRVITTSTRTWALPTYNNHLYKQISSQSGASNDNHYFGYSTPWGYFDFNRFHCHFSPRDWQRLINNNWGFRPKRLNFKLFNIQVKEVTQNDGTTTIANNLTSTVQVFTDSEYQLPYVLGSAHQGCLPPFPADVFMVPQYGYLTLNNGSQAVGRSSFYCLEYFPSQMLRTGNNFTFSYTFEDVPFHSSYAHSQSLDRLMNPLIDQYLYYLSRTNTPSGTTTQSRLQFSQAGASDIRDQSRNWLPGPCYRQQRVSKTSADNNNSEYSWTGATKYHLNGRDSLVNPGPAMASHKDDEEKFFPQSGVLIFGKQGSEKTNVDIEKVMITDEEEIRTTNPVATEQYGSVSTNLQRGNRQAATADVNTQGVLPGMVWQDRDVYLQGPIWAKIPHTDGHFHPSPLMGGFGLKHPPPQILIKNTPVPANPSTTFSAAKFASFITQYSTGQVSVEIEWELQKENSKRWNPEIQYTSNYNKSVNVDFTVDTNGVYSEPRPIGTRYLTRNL

With “protein M without cleavage of the His tag (from UniProt P47523 37-556)”, in assay [1], the molar ratio of protein M to AAV2 particle at which enhancement begins to saturate (protein M molecules per AAV2 particle) was found to be 700000 and the molar ratio of protein M to AAV2 particle below which enhancement of the luciferase signal is abolished (protein M molecules per AAV2 particle) was less than 40000.
The Kd is the equilibrium constant for the complex coming apart. What is called koff is the first-order rate constant of dissociation. Higher therefore signals a short-lived complex. The term kon denotes the second-order rate constant of association. A lower kon goes with slower complex formation. MG WT had a Kd in assay [2] of 11.9 nM. In addition, in assay [3], the dissociation rate constant (koff) is 0.00033 s⁻¹ and the kon came to 28000 M⁻¹ s⁻¹.

B1: protein M (SEQ ID NO:2), His-tag removed by thrombin cleavage (protein)
chain: HHHHHHSSGLVPRGSHMTNLVNQSGYALVASGRSGNLGFKLFSTQSPSAEVKLKSLSLNDGSYQSEIDLSGGANFREKFRNFANELSEAITNSPKGLDRPVPKTEISGLIKTGDNFITPSFKAGYYDHVASDGSLLSYYQSTEYFNNRVLMPILQTTNGTLMANNRGYDDVFRQVPSFSGWSNTKATTVSTSNNLTYDKWTYFAAKGSPLYDSYPNHFFEDVKTLAIDAKDISALKTTIDSEKPTYLIIRGLSGNGSQLNELQLPESVKKVSLYGDYTGVNVAKQIFANVVELEFYSTSKANSFGFNPLVLGSKTNVIYDLFASKPFTHIDLTQVTLQNSDNSAIDANKLKQAVGDIYNYRRFERQFQGYFAGGYIDKYLVKNVNTNKDSDDDLVYRSLKELNLHLEEAYREGDNTYYRVNENYYPGASIYENERASRDSEFQNEILKRAEQNGVTFDENIKRITASGKYSVQFQKLENDTDSSLERMTKAVEGLVTVIGEEKFETVDITGVSSDTNEVKSLAKELKTNALGVKLKL
In assay [4], B1 came in with an AAV2-Luciferase signal, % of PBS control, 33 µg protein M incubated alone with AAV2 (% of PBS control) of 216 and an AAV2-Luciferase signal, % of PBS control, 75 µg protein M incubated alone with AAV2 (% of PBS control) of 208. In [5], the AAV2-Luciferase signal, % of no-IVIG control, at 8:1 molar ratio (33 µg protein M, 12.5 µg IVIG) (% of no-IVIG control) was found to be 194; the AAV2-Luciferase signal, % of no-IVIG control, at 20:1 molar ratio (75 µg protein M, 12.5 µg IVIG) (% of no-IVIG control) was found to be 256; the AAV2-Luciferase signal, % of no-IVIG control, at protein M:IgG molar ratio 0.5:1 (% of no-IVIG control) came to 40; the AAV2-Luciferase signal, % of no-IVIG control, at protein M:IgG molar ratio 1:1 (% of no-IVIG control) came to 52. Moreover, in [5], the AAV2-Luciferase signal, % of no-IVIG control, at protein M:IgG molar ratios greater than 2:1 (12.5 µg IVIG) (% of no-IVIG control) lay within 108 to 193 and the molar ratio of protein M to IgG sufficient to prevent AAV2 neutralization (protein M molecules per IgG molecule) was 2.

B2: MG 40 (protein, part only)
chain: SLSLNDGSYQSEIDLSGGANFREKFRNFANELSEAITNSPKGLDRPVPKTEISGLIKTGDNFITPSFKAGYYDHVASDGSLLSYYQSTEYFNNRVLMPILQTTNGTLMANNRGYDDVFRQVPSFSGWSNTKATTVSTSNNLTYDKWTYFAAKGSPLYDSYPNHFFEDVKTLAIDAKDISALKTTIDSEKPTYLIIRGLSGNGSQLNELQLPESVKKVSLYGDYTGVNVAKQIFANVVELEFYSTSKANSFGFNPLVLGSKTNVINDLFASKPFTHIDLTQVPLQNSDNSAIDANKLKQAVGDIYNYRRFERQFQGYFAGGYIDKYLVKNVNTNKDSDDDLVYRSLKELNLHLEEAYREGDNTYYRVNENYYPGASIYENERASRDSEFQNEILKRAEQNGVTFDEN
modifications: N-terminal His-tag and thrombin site
As for B2, the Kd in assay [6] came out at 10.1 nM. Moreover, in assay [3], the koff stood at 0.00031 s⁻¹ and the kon came out at 31000 M⁻¹ s⁻¹.

B3: MG29 (modified M. genitalium protein M MG29, N338) (protein, not shown: small tags and cut ends)
chain: SLSLNDGSYQSEIDLSGGANFREKFRNFANELSEAITNSPKGLDRPVPKTEISGLIKTGDNFITPSFKAGYYDHVAEDGSLLSYYQSTEYFNNRVLMPILQTTNGTLMANNRGYDDVFRQVPRFPGWSNTKATTVSTSNNLTYDKWTYFAAKGSPLYDQYPNHTFEDVKTLAIDAKDISALKTTIDSEKPTYLIIRGLSGNGSQLNELQLPESVKKVSLYGDYTGVNVAKQIFANVVELEFYSTSKANSFGFNPLVLGSKTNVINDLFVSKPFTHIDLTQVTLQNSDNSAIDANKLKQAVGDIYNYRRFERQFQGYFAGGYIDKYLVKNVNTNKDSDDDLVYRSLKELNLHLEEAYREGDNTYYRVNENYYPGASIYENERASRDSEFQNEILKRAEQNGVTFDEN
In [7], B3 showed a dissociation constant Kd of 7.9 nM, a koff of 0.00034 s⁻¹ and a kon of 43000 M⁻¹ s⁻¹.

B4: MG WT* (truncated M. genitalium protein M, amino acids 74-479, with Y338) (protein)
chain: SLSLNDGSYQSEIDLSGGANFREKFRNFANELSEAITNSPKGLDRPVPKTEISGLIKTGDNFITPSFKAGYYDHVASDGSLLSYYQSTEYFNNRVLMPILQTTNGTLMANNRGYDDVFRQVPSFSGWSNTKATTVSTSNNLTYDKWTYFAAKGSPLYDSYPNHFFEDVKTLAIDAKDISALKTTIDSEKPTYLIIRGLSGNGSQLNELQLPESVKKVSLYGDYTGVNVAKQIFANVVELEFYSTSKANSFGFNPLVLGSKTNVIYDLFASKPFTHIDLTQVTLQNSDNSAIDANKLKQAVGDIYNYRRFERQFQGYFAGGYIDKYLVKNVNTNKDSDDDLVYRSLKELNLHLEEAYREGDNTYYRVNENYYPGASIYENERASRDSEFQNEILKRAEQNGVTFDEN
In assay [8], B4 displayed a dissociation constant (Kd) of 0.8 nM, a koff of 6.73e-05 s⁻¹ and a kon of 83800 M⁻¹ s⁻¹.

B5: MG 31 (protein, part only)
chain: SLSLNDGSYQSEIDLSGGANFREKFRNFANELSEAITNSPKGLDRPVPKTEISGLIKTGDNFITPSFKAGYYDHVASDGSLLSYYQSTEYFNNRVLMPILQTTNGTLMANNRGYDDVFRQVPSFSGWSNTKATTVSTSNNLTYDKWTYFAAKGSPLYDSYPNHFFEDVKTLAIDAKDISALKTTIDSEKPTYLIIRGLSGNGSQLNELQLPESVKKVSLYGDYTGVNVAKQIFANVVELEFYSTSKANSFGFNPLVLGSKTNVINDLFASKPFTHIDLTQVTLQNSDNSAIDANKLKQAIGDIYNYRRFERQFQGYFAGGYIDKYLIKIVNTNPDVDDDIVYRSLKELNLHLEEAYREGDNIYYRVNENYYPGASIYENERASRDSEFQNEILKRAEQNGVTFDEN
modifications: N-terminal His-tag and thrombin site
Take B5: in [3], the koff came to 0.00047 s⁻¹ and the kon turned out to be 30000 M⁻¹ s⁻¹. In assay [9], this molecule came in with a Kd of 15.5 nM.

B6: MG66* (modified M. genitalium protein M MG66 with Y338) (protein)
chain: SLSLNDGSYQSEIDLSGGANFREKFRNFANELSEAITNSPKGLDRPVPKTEISGLIKTGDNFITPSFKAGYYDHVAEDGSLLSYYQSTEYFNNRVLMPILQTTNGTLMANNRGYDDVFRQVPRFPGWSNTKPTTVSTSNNLTYDKWTYFAAKGSPLYDQYPNHTFEDVKTLAIDAKDISALKTTIDSEKPTYLIIRGLSGDGSQLNELQLPESVKKVSLYGDYTGVNVAKQIFANVVELEFYSTSKANSFGFNPLVLGSKTNVIYDLFVSKPFTHIDLTQVPLQNSDNSAIDANKLKQAVGDIYNYRRFERQFQGYFAGGYIDKYLVKNVNTNKDSDDDLVYRSLKELNLHLEEAYREGDNTYYRVNENYYPGASIYENERASRDSEFQNEILKRAEQNGVTFDEN
In [8], B6 came in with a Kd of 0.69 nM, a koff of 5.55e-05 s⁻¹ and a kon of 80100 M⁻¹ s⁻¹.

For the origin of these results see US20240309055A1.
